Data set [1] addresses T1, NONO(53-312) (UniProt Q15233 53-312).
T1 sequence: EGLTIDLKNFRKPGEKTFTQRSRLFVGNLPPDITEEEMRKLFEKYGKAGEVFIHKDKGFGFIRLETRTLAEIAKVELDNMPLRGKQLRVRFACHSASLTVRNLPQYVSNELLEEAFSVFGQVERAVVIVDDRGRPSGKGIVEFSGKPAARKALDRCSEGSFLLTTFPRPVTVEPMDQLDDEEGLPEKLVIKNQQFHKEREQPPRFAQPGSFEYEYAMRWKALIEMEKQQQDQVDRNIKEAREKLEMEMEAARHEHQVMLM
Description: competition; vs labelled NEAT1_22619 G4, 1-200x excess; NONO(53-312) EMSA: 20 mM HEPES pH 7.5, 5.7 mM Tris-HCl, 113 mM KCl, 10% glycerol, 62 mM L-proline, 1% EMPIGEN BB, 0.12 mM EDTA, 4 C 1 h, 10 nM RNA; full-length: 20 mM HEPES pH 7.4, 11 mM Tris, 105 mM KCl, 14% glycerol, 40 mM glycine, 0.2 mM EDTA, 0.5 mM DTT, 0.5% BSA, 25 C; pulldown: 10 mM HEPES pH 7.0, 200 mM KCl, 1% Triton X-100, 1 mM MgCl2, 1 mM DTT, 4 C, …. The settings on record: protein: recombinant; tags: His tag removed by TEV; chain copies: 2; label: none; intramolecular G4. A general note: Mobility shift assays separate free from complexed probe on a gel.

The target of another data set is T2, NONO full-length (UniProt Q15233 1-471).
T2 sequence: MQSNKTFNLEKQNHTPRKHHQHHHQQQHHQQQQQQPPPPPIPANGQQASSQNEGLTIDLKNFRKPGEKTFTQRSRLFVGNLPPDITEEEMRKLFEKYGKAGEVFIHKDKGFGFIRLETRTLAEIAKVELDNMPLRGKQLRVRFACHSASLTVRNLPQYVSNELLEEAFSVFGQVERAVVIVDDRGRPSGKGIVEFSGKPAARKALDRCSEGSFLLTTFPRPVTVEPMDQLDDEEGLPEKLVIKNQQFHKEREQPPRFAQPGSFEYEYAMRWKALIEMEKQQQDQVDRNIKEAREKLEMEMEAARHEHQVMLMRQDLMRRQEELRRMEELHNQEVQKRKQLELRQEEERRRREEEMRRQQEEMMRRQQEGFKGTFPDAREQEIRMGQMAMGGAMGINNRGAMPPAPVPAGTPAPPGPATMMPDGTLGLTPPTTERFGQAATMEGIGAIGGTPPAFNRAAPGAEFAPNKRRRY
Description: EMSA; annealed with 100 mM KCl; complex retained in wells; NONO(53-312) EMSA: 20 mM HEPES pH 7.5, 5.7 mM Tris-HCl, 113 mM KCl, 10% glycerol, 62 mM L-proline, 1% EMPIGEN BB, 0.12 mM EDTA, 4 C 1 h, 10 nM RNA; full-length: 20 mM HEPES pH 7.4, 11 mM Tris, 105 mM KCl, 14% glycerol, 40 mM glycine, 0.2 mM EDTA, 0.5 mM DTT, 0.5% BSA, 25 C; pulldown: 10 mM HEPES pH 7.0, 200 mM KCl, 1% Triton X-100, 1 mM MgCl2, 1 mM DTT, 4 C, …. The settings on record: protein: commercial; tags: MYC/DDK; chain copies: 2; label: 3' Cy5; intramolecular G4, annealed with 100 mM KCl.

Data set [2] addresses T1, NONO(53-312). Description: EMSA; annealed with 100 mM KCl; NONO(53-312) EMSA: 20 mM HEPES pH 7.5, 5.7 mM Tris-HCl, 113 mM KCl, 10% glycerol, 62 mM L-proline, 1% EMPIGEN BB, 0.12 mM EDTA, 4 C 1 h, 10 nM RNA; full-length: 20 mM HEPES pH 7.4, 11 mM Tris, 105 mM KCl, 14% glycerol, 40 mM glycine, 0.2 mM EDTA, 0.5 mM DTT, 0.5% BSA, 25 C; pulldown: 10 mM HEPES pH 7.0, 200 mM KCl, 1% Triton X-100, 1 mM MgCl2, 1 mM DTT, 4 C, washes to 1.6 M KCl. The settings on record: protein: recombinant; tags: His tag removed by TEV; chain copies: 2; label: 3' Cy5; intramolecular G4, annealed with 100 mM KCl.

The target of data set [3] is T1, NONO(53-312). Description: competition; vs labelled NEAT1_22619 G4, 1-200x excess; no significant competition; NONO(53-312) EMSA: 20 mM HEPES pH 7.5, 5.7 mM Tris-HCl, 113 mM KCl, 10% glycerol, 62 mM L-proline, 1% EMPIGEN BB, 0.12 mM EDTA, 4 C 1 h, 10 nM RNA; full-length: 20 mM HEPES pH 7.4, 11 mM Tris, 105 mM KCl, 14% glycerol, 40 mM glycine, 0.2 mM EDTA, 0.5 mM DTT, 0.5% BSA, 25 C; pulldown: 10 mM HEPES pH 7.0, 200 mM KCl, 1% Triton X-100, 1 …. The settings on record: protein: recombinant; tags: His tag removed by TEV; chain copies: 2; label: none; annealed with 100 mM KCl.

B1: (GGGGCC)4 G-quadruplex competitor (structured_RNA)
RNA: GGGGCCGGGGCCGGGGCCGGGGCC
In the case of B1, in the data set with NONO(53-312) [1], the binding result was “binds”.

B2: NEAT1_22619 G-quadruplex (structured_RNA)
RNA: GGGAGGGAGGGAGGG
Regarding B2, the binding result with NONO full-length and in the data set with NONO(53-312) [2] was “binds” throughout.

B3: NEAT1_22619 G-quadruplex competitor (structured_RNA)
RNA: GGGAGGGAGGGAGGG
With B3, in the data set with NONO(53-312) [1], the binding result was “binds”.

B4: 5'-Splice Site RNA (ssRNA)
RNA: AAAAAGGUAAG
For the molecule B4, in the data set with NONO(53-312) [3], the binding result is “no binding”.

B5: (GGGGCC)4 G-quadruplex (structured_RNA)
RNA: GGGGCCGGGGCCGGGGCCGGGGCC
For the molecule B5, the binding result in the data set with NONO(53-312) [2] is recorded as “binds”.

(Values after article PMC7367201, “G-quadruplexes offer a conserved structural motif for NONO recruitment to NEAT1 architectural lncRNA”.)
